Experimental data: article PMC10425836, “Cryo‐EM structure of antibacterial efflux transporter QacA from Staphylococcus aureus reveals a novel extracellular loop with allosteric role” (The EMBO Journal, 2023)

How the values were obtained:
[1] = target: ICab A4 displayed on the yeast cell surface; assay: flow cytometry on cells; yeast cells displaying the ICab incubated with different concentrations of purified QacA_(D411N)-GFP; population shift-based titration; one site-specific binding fit; apparent Kd
[2] = target: the identified ICabs; assay: as above
[3] = target: ICab B7 displayed on the yeast cell surface; assay: as above
[4] = target: five unique clones; assay: flow cytometry on cells; yeast cells displaying individual ICab clones with QacA_(D411N)-GFP; percent population shift
[5] = target: T1, QacAWT tagged with GFP (Staphylococcus aureus, UniProt P0A0J9); assay: immunostaining of cells or tissue; NHS-Rhodamine labelled ICabs (0.03 mg/ml) added to E. coli spheroplasts expressing GFP-tagged QacA, room temperature 30 min, washed, confocal microscopy; details: one partner purified
T1 construct: QacA wild type, 14 transmembrane helix MFS (DHA2) antibacterial efflux antiporter of Staphylococcus aureus; codon-optimized synthetic gene in pBAD-His8; the methods of the spheroplast imaging name only QacA_(D411N)-GFP; also called QacA-GFP; source: on E. coli spheroplasts; not shown: GFP, C-terminal, kept

B1: QacA_(D411N)-GFP (natural protein)
chain: MISFFTKTTDMMTSKKRWTALVVLAVSLFVVTMDMTILIMALPELVRELEPSGTQQLWIVDIYSLVLAGFIIPLSAFADKWGRKKALLTGFALFGLVSLAIFFAESAEFVIAIRFLLGIAGALIMPTTLSMIRVIFENPKERATALAVWSIASSIGAVFGPIIGGALLEQFSWHSAFLINVPFAIIAVVAGLFLLPESKLSKEKSHSWDIPSTILSIAGMIGLVWSIKEFSKEGLADIIPWVVIVLAITMIVIFVKRNLSSSDPMLDVRLFKKRSFSAGTIAAFMTMFAMASVLLLASQWLQVVEELSPFKAGLYLLPMAIGDMVFAPIAPGLAARFGPKIVLPSGIGIAAIGMFIMYFFGHPLSYSTMALALILVGAGMASLAVASALIMLETPTSKAGNAAAVEESMYNLGNVFGVAVLGSLSSMLYRVFLDISSFSSKGIVGDLAHVAEESVVGAVEVAKATGIKQLANEAVTSFNDAFVATALVGGIIMIIISIVVYLLIPKSLDITKQK
Kd [1]: 65 nM
Kd [2]: 59 nM
Kd [3]: 100 nM
population shift [4]: 65 to 97%

B2: ICab B7, purified (VHH)
VHH: QVQLQESGGGSVQAGGSLRLSCAASGYTNSRKCMGWFRQIPGKEREGVAAIYGFGRGLILYADSVKGRFTISQDNAKNTVYLQMNSLKPEDTAMYYCAADSPGSCLSRSGYNYWGQGTQVTVSS
notes: single-domain Indian camelid antibody B7 from a camel immunised with QacA; source: E. coli SHuffle T7, purified (Ni-NTA, SEC)
binding result [5]: binds

B3: ICab A4, purified (VHH)
VHH: QVQLQESGGGSVQTGGSLRLSCAASGYRYSDNCVGWFRQAPGREREAVATYNSGSSTWYADSVKGRFTISQDSAKSTVYLQMNNLKPEDTAMYYCAGRNRLGSYCYMTGDFAYWGQGTQVTVSS
notes: single-domain Indian camelid antibody A4 from a camel immunised with QacA; source: E. coli SHuffle T7, purified (Ni-NTA, SEC)
binding result [5]: binds
